Laboratory results published in PMC6126186.

Target: exonuclease domain from the DNA repair protein WRN
Assay: SEC-MALS; protein concentrated (10x and 20x) in a mixture of 50 mM phosphate and 1% sucrose; A280 and MALS across the elution peak

Chain of exonuclease domain from the DNA repair protein WRN (Q14191 2-1432): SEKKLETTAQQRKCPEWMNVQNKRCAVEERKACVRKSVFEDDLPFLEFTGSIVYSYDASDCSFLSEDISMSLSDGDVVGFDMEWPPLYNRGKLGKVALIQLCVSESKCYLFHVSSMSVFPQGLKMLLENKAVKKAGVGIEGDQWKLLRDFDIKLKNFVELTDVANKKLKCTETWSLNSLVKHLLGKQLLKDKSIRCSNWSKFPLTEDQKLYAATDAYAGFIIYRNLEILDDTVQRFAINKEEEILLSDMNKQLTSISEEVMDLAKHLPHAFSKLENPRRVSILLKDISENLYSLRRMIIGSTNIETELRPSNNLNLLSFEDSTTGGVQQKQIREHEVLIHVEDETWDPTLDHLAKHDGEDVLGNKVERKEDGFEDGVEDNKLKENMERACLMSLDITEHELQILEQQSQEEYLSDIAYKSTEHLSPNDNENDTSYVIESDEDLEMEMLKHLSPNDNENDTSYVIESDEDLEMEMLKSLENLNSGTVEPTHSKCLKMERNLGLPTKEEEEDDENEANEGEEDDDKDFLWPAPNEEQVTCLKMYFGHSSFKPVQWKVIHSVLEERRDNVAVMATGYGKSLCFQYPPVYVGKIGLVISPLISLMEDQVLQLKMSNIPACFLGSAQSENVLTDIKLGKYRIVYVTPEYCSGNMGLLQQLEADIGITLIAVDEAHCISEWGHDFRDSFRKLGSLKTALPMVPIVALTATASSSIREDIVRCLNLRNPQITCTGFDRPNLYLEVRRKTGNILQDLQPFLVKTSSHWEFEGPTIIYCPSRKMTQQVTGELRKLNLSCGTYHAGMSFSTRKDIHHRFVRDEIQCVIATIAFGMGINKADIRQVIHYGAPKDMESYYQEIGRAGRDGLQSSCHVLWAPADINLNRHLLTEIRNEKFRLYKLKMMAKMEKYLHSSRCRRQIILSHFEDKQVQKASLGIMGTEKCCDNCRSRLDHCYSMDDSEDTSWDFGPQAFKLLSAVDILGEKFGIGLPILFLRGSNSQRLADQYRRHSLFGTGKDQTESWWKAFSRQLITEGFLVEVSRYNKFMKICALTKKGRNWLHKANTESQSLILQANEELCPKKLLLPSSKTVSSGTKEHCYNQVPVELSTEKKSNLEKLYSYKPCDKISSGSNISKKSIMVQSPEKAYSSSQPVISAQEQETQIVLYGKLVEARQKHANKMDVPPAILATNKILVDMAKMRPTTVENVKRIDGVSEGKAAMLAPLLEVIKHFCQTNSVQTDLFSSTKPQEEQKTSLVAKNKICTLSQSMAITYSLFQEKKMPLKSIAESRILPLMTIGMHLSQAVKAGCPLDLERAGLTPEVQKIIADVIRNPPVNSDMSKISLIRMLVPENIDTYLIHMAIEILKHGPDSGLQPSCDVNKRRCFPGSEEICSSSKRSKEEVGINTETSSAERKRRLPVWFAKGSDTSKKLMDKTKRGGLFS

stoichiometry N: 2
Substance: exonuclease domain from the DNA repair protein WRN (domain or fragment)
